# In patent US20220356229A1 (published 2022):
# Numbering of substitutions follows the chain as printed.
# B1: antibody 454 (antibody, V domains shown)
# VH: QVQLVQSGAEVKKPGASLKVSCKASGYIFTGYYMHWVRQAPGQGLEWMGWISPNSGGTKYAQKFQGRVTMTRDTSISTAYMELSRLRSDDSAVYYCAREPYYDILTGYYTPRRYLDYWGQGTLVTVSS
# VL: QSALTQPASVSGSPGQSITISCTGTSSDVGDYNYVSWYQQHPGKVPKLMIYDVSHRPSGVTNRFSGSKSGNTASLTISGLRAEDEADYYCSSYTSSSTYVFGTGTKVTVL
# B2: antibody 446 (antibody, V domains shown)
# VH: QVQLVESGGGVVQPGRSLRLSCAASGFTFSSYAMHWVRQAPGKGLEWVAVISYDGSNKYYADSVKGRFTISRDNSKNTLYLQMNSLRAEDTAVYYCARPNSGSYFGYFQHWGQGTLVTVSS
# VL: QSVLTQPPSVSGAPGQRVTISCTGSSSNIGAGYDVHWYQQLPGTAPKLLIYGNSNRPSGVPDRFSGSKSGTSASLAITGLQAEDEADYYCQSYDSSLSGFYVFGTGTKVTVL
# B3: antibody 439 (antibody, V domains shown)
# VH: B2 VH with N100P, S101R, S103G, Y104S, F105Y, G106Y, Y107P, Q109D, H110P
# VL: not shown
# B4: antibody 577 (antibody, V domains shown)
# VH: QLPLQESGPGLVKPSETLSLTCTVSGGSISSSSYYWGWIRQPPGKGLEWIGSIYYSGSTFYNPSLKSRVTISGDTSKNQFSLKVTSVTAADTAVYYCARGSGSSGWYAFDIWGQGTMVTVSS
# VL: QSALTQPASVSGSPGQSITISCTGTSSDFGGYNYVSWYQQHPDKAPKLMIYDVSNRPSGVSNRFSGSKSGNTASLTISGLQAEDEADYYCSSYTTSSTWVFGGGTKLTVL
# B5: antibody 576 (antibody, V domains shown)
# VH: B2 VH with R98K, P99A, N100G, S101G, F105Y, G106R, Y107G, Q109D, H110Y
# VL: DIQLTQSPSFLSASVGDRVTITCRASQGISSYLAWYQQKPGKAPKLLIYAASTLQSGVPSRFSGSGSGTEFTLTISSLQPEDFATYYCQQLNSYPTFGPGTKVDIK
# B6: anti-SARS-CoV-2 antibody 1098 (antibody, V domains shown)
# VH: EVQLLESGGGLVQPGGSLRLSCAASGFTFNSYAMSWVRQAPGKGLEWVSAISGSGGSTYYADSVKGRFSISRDNAKNTLFLQMNSLRAEDTAVYYCARSGGNFDYWGQGTLVTVSL
# VL: SYELTQPPSVSVSPGQTARITCSGDVLAKRYVYWYQQKPGQAPVLVIYRDSERPSGIPERFSGSSSGTTVTLTISGVQAVDEADYYCQSADSSGTLYVFGTGTKVTVL
# B7: anti-SARS-CoV-2 antibody 1118 (antibody, V domains shown)
# VH: QVQLVESGGGVVQPGRSLRLSCAASGFTFSTYAMHWVRQAPGKGLEWVAVISYDGSNKYYSDSVKGRFTISRDNSKNTLYLQMNSLRAEDTAVYYCARAHTSGWPLGDYFDYWGQGTLVTVSS
# VL: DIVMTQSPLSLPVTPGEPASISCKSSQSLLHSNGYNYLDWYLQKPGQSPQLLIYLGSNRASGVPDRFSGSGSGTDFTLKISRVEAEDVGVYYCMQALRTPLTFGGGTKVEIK
# B8: anti-SARS-CoV-2 antibody 555 (antibody, V domains shown)
# VH: QVQLVQSGAEVKKPGSSVKVSCKASGGTFSNYAISWVRQAPGQGLEWMGRIIPILGIANYAQKFQGRVTITADKSTSTAYMELSSLRSEDTAVYYCARGYYEARHYYYYYAMDVWGQGTAVTVSS
# VL: not shown
# B9: anti-SARS-CoV-2 antibody 1037 (antibody, V domains shown)
# VH: QITLKESGPTLVKPTQTLTLTCTFSGFSLSTSGVGVGWIRQPPGKALEWLALIYWDDDKRYSPSLKSRLTITKDTSKNQVVLTMTNMDPVDTATYYCAHHTITRINDYWGQGTLVTVSS
# VL: QSALTQPASVSGSPGQSITISCTATSSDVGAYNYVSWYQQHPGKAPKLMIYDVSKRPSGVSNRFSGSKSGNTASLTISGLQAEDEADYYCSSYTSSSTVFGGGTKLTVLG
# B10: anti-SARS-CoV-2 antibody 1075 (antibody, V domains shown)
# VH: QVQLVQSGAEVKKPGASVKVSCKVSGYTLIELSMHWVRQAPGKGLEWMGGFDPEDGETIYAQKFQGRVTMTEDTSTDTAYMELSSLRSEDTAVYYCATEWAYYGSGSYLGYWGQGTLVTVSS
# VL: EIVMTQSPATLSVSPGERATLSCRASQSVSSNLAWFQQKPGQAPRLLIYGASTRVTVIPARFSGSGSGTEFTLTISSLQSEDFAVYYCQQYNNWPRTFGQGTKVEIKR
# B11: anti-SARS-CoV-2 antibody 923 (antibody, V domains shown)
# VH: EVQLVESGGGVVRPGGSLRLSCAASGFIFDDYDMTWVRQAPGKGLEWVSGISWNGGNTGYADSVKGRFTISRDNAKNSLYLQMNSLRAEDTALYHCAVIMSPIPRYSGYDWAGGAFDIWGQGTMVTVSS
# VL: SSELTQDPAVSVALGQTVRITCQGDSLRSYYASWYQQKPGQVPILVIYDKNNRPSGIPDRFSGSSSGNTASLTITGAQAEDEADYYCNSRDSSGNAVVFGGGTKLTVLG
# B12: anti-SARS-CoV-2 antibody 1015 (antibody, V domains shown)
# VH: EVQLVESGGGLVQPGGSLRLSCAASGFTFSSYWMHWVRQAPGKGLVWVSHINSDGSSTSYADSVKGRFTISRDNAKNTLYLQMNSLRAEDTAVYYCARGLRYFDLDVWGQGTTVTVSS
# VL: QSVLTQPPSVSEAPRQRVTISCSGSSSNIGNNAVNWYQQLPGKAPKLLIFYDDLLPSGVSDRFSGSKSGTSASLAISGLQSEDEADYYCAAWDDSLNGGVFGGGTKLTVLG
# B13: anti-SARS-CoV-2 antibody 989 (antibody, V domains shown)
# VH: QVQLVQSGAEVKKPGASVKVSCKASGYTFTNYYMHWVRQAPGQGLEWMGIINPSDDNTTYAQKIQGRVIMTRDTSTSTVYMELSSLRSEDTAVYYCARAFAEWELLLDYWGQGTLVTVSS
# VL: not shown
# B14: anti-SARS-CoV-2 antibody 1081 (antibody, V domains shown)
# VH: QITLKESGPTLVKPTQTLTLTCTFSGFSLSTSRVGVGWIRQPPGKALEWLALIYWNDGKLYSPSLKSRLTITKDTSKNQVVLTLTNMDSVDTATYFCARGQTGTPLYDAFDFWGRGTMVTVSS
# VL: SYVLTQPPSVSVAPGKTAGITCGGDNFETKSVSWYQHKPGQAPVLVVYGNANRPSGIPERFSASKSGNTATLTISRVEAGDEADYYCQVWDSRSFHYVVFGGGTKLTVL
# B15: anti-SARS-CoV-2 antibody 1000 (antibody, V domains shown)
# VH: EVQLVQSGAEVKKPGESLKISCKASGYSFTIYWIGWVRQMPGKGLEWMGVIYPGDSDTRYSPSFQGQVTISADKSISTAYLQWSSLKASDTAMYYCALGYHSGSYPFNWFDPWGQGTLVTVSS
# VL: EIVMTQSPATLSVSPGERATLSCRASQSVSSNLAWYQQKPGQTPRLLIYGASTRATGIPARFSGSGSGTEFTLTISSLQSEDFAVYYCQQYDNLLTFGGGTKVEIK
# B16: anti-SARS-CoV-2 antibody 1091 (antibody, V domains shown)
# VH: QVQLVESGGGVVQPGRSLRLSCAASGFTFSNYAMHWVRQAPGKGLEWVAVISYDGSNKYYADSVKGRFTISRDNSKNTLYLQMNSLRAEDTAVYYCARDKLLWFGELLFDMDVWGKGTTVTVSS
# VL: DIQMTQSPSSLSASVGDRVTITCRASQGISNYLAWFQQKPGKAPKSLIYDASSLQSGVPSKFSGSGSGTDFTLTISSLQPEDFATYYCQQYNSYPPSFGPGTKVDIK
# Molecular target: SARS-CoV-2 full length Spike protein, wild type (SARS-CoV-2, UniProt P0DTC2 14-1208)
# Experiment: not given
row,Binder,"median fluorescence, fold over isotype [fold over isotype control]"
1,B1,1090
2,B2,435
3,B3,227

# Molecular target: SARS-CoV-2 full length Spike protein, wild type, expressed on the surface of transiently transfected CHO cells (SARS-CoV-2, UniProt P0DTC2 14-1273)
# Experiment: not given
row,Binder,"median fluorescence intensity, fold over isotype control [fold over isotype]"
1,B4,1.14
2,B5,8.75

# Molecular target: SARS-CoV-2 Spike protein on pseudotyped lentivirus (SARS-CoV-2, UniProt P0DTC2 14-1273)
# Experiment: cell-based or functional assay
row,Binder,Pseudo-neutralization IC50 [µg/mL]
1,B6,0.087
2,B7,0.026

# Molecular target: Spike protein of SARS-CoV-2 hCoV-19/Canada/ON_ON-VIDO-01-2/202 (live virus) (SARS-CoV-2, UniProt P0DTC2 14-1273)
# Experiment: cell-based or functional assay
row,Binder,"IC50 (µg/mL), plaque reduction neutralization test [µg/mL]"
1,B8,0.0083
2,B9,0.0096
3,B10,0.409
4,B11,0.01

# Molecular target: Spike protein of authentic SARS-CoV-2/MT020880.1 (live virus) (SARS-CoV-2, UniProt P0DTC2 14-1273)
# Experiment: cell-based or functional assay
row,Binder,"IC50 (ng/mL), immunofluorescence neutralization assay [ng/mL]"
1,B8,49.2
2,B9,32.8
3,B10,89.6
4,B12,260
5,B11,121

# Molecular target: SARS-CoV-2 Spike protein (wild type) (SARS-CoV-2, UniProt P0DTC2 14-1208)
# Experiment: SPR (Carterra LSA), mAb coupled to HC30M chip, Spike titrated; Example 4 methods
row,Binder,Kd [pM]
1,B13,104
2,B14,93
3,B15,92
4,B16,54
5,B6,173
6,B7,223
